Experimental data from patent US20150265516A1 (Merck KGaA, published 2015).
Starred links: 1 amine or outer side, 2 acyl side, 3 side chain; linkers in the order of their positions; H or OH if unused. Non-standard residues stand in square brackets, D forms with d. Primed or numbered codes have the meaning given here. No end group written: not given here. Nhdg = N-hexadecylglycine, CCCCCCCCCCCCCCCCN(CC(=O)[*:2])[*:1]; Aib′ = 3-aminoisobutyric acid (as defined by the filing); Ac6c = NC1(C(=O)O)CCCCC1; NMeA = CN[C@@H](C)C(=O)O; Ac5c = NC1(C(=O)O)CCCC1

Legend:
[1] = molecular target: T1, recombinant human integrin αvβ3 (human, UniProt P06756 31-992; P05106 27-718); experiment: ligand inhibition ELISA: immobilized recombinant human αvβ3, competitor ligand biotinylated human serum vitronectin
T1 construct: also called recombinant human αvβ3 integrin; avβ3
T1 sequence (P06756 31-992, chain 1 of 2): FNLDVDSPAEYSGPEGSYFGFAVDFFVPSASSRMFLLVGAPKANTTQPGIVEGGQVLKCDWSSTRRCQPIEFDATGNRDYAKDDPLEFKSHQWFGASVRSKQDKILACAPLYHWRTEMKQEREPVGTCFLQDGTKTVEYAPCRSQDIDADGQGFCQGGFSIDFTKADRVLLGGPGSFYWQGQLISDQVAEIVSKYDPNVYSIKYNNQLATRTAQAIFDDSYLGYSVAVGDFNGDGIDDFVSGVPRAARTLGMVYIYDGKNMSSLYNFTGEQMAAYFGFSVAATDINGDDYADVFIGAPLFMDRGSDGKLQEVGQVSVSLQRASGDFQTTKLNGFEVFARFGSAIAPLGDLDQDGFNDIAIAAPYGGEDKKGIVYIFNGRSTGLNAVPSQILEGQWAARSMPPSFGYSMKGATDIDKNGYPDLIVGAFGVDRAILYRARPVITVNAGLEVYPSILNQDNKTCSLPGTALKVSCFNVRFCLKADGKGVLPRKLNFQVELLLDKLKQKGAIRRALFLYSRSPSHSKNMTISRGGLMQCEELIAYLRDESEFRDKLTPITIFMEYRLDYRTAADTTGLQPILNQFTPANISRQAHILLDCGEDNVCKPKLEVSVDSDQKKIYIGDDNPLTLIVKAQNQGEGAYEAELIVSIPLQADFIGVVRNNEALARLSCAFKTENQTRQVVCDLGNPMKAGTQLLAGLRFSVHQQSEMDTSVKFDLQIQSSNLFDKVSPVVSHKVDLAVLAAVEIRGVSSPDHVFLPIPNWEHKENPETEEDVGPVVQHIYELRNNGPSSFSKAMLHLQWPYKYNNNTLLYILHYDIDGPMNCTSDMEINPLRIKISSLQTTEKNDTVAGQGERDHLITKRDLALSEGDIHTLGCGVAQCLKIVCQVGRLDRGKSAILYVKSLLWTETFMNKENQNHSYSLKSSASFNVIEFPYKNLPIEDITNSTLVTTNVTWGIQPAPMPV
T1 sequence (P05106 27-718, chain 2 of 2): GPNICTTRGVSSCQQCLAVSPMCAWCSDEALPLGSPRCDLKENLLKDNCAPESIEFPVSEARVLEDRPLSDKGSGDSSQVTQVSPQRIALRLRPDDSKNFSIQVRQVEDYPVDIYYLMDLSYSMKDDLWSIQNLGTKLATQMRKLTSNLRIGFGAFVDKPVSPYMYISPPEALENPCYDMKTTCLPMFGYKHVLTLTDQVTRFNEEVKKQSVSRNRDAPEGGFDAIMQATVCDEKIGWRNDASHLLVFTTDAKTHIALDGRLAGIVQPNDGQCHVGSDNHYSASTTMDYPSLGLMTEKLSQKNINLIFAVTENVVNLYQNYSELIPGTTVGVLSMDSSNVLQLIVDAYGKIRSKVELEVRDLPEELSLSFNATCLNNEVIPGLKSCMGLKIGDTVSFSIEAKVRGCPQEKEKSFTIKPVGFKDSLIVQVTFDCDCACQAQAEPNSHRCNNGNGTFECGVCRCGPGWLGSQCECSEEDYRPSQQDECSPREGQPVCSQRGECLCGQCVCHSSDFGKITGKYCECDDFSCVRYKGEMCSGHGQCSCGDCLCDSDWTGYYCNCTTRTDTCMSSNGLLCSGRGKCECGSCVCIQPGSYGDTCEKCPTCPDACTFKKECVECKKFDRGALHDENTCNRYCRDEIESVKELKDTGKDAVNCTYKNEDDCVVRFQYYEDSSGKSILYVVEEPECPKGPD

[2] = molecular target: T2, purified human integrin αvβ3 from term placenta (human, UniProt P06756 31-1048; P05106 27-788); experiment: receptor inhibition assay: coated placental αvβ3, competitor ligand biotinylated vitronectin
T2 construct: mature; also called human placental αvβ3; vitronectin receptor avβ3
T2 sequence (P06756 31-1048, form in doubt, chain 1 of 2): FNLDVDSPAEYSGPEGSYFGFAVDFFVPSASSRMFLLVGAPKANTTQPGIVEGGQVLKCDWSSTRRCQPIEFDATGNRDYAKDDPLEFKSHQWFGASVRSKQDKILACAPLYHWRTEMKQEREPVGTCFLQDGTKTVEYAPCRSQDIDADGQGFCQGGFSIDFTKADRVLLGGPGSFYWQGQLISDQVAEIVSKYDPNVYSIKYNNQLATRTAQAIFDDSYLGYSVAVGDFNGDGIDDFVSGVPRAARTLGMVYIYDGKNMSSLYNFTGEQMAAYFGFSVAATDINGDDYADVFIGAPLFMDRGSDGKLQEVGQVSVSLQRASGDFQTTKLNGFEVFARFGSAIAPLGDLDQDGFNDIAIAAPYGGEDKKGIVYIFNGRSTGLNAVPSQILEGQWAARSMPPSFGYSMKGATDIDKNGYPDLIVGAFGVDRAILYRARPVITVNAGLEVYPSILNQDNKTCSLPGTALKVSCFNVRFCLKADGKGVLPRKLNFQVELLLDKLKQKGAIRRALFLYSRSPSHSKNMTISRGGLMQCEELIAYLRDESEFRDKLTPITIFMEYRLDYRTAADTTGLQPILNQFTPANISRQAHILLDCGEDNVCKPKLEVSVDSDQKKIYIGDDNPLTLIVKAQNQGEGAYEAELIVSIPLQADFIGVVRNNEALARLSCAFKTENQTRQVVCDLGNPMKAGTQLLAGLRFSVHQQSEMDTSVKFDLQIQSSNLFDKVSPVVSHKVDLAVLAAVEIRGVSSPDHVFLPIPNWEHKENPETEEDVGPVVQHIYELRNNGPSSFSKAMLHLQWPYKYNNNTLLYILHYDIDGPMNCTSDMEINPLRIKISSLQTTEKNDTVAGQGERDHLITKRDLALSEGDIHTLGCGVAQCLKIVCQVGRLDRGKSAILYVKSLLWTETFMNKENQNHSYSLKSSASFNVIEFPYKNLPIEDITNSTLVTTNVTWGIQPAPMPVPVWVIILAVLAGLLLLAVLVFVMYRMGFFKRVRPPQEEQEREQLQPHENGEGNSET
T2 sequence (P05106 27-788, form in doubt, chain 2 of 2): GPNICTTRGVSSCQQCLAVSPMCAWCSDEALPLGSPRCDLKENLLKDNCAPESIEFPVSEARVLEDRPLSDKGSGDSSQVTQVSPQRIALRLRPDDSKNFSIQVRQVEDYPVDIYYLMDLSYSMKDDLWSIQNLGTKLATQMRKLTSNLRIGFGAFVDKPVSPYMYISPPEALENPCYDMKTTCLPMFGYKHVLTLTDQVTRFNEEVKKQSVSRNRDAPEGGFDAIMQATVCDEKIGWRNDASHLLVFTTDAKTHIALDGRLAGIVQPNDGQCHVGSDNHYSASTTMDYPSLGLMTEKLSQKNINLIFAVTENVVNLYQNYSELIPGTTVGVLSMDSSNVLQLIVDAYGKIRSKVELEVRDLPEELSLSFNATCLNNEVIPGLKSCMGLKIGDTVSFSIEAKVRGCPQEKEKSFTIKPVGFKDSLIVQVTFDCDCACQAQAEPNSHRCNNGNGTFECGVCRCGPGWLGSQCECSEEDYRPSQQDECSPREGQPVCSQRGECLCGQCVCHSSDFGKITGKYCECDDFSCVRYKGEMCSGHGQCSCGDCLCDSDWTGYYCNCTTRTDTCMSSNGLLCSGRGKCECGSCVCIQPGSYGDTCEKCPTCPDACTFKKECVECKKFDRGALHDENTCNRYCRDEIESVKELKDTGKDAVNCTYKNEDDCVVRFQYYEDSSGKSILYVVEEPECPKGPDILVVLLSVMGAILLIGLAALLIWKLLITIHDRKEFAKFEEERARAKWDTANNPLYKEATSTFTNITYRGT
Method: Method: 1 μg ml⁻¹ biotin-ligand is incubated with 1 μg ml⁻¹ coated receptor in the presence of serially diluted peptides. After 3 h at 30° C. bound ligand was measures by anti-biotin—alkaline phosphatase detection.

[3] = molecular target: T2, purified human integrin αvβ3 from term …; experiment: solid-phase inhibition assay: immobilized placental αvβ3, competitor ligand vitronectin
[4] = molecular target: T1, recombinant human integrin αvβ3; experiment: isolated integrin binding assay: adsorbed recombinant human αvβ3, competitor ligand biotinylated human plasma vitronectin
Method: After 3 hours at 37° C., bound ligand is detected using alkaline-phosphatase labelled anti-biotin MAbs (Sigma, St. Louis, Mo.).

B1: Cyclo-(Arg-Gly-Asp-DPhe-(NMe)Ala) (peptide)
peptide: cyclo(RGD[dF][NMeA])
SMILES: C[C@H]1C(=O)N[C@@H](CCCNC(=N)N)C(=O)NCC(=O)N[C@@H](CC(=O)O)C(=O)N[C@H](Cc2ccccc2)C(=O)N1C
B1 was tested, and the IC50 [1] was 24 nM.

RGDFG (head-to-tail cyclic (homodetic)) [Cyclo(Arg-Gly-Asp-Phe-Gly)] showed an IC50 [2] of 400 nM.

B2: Cyclo-(Arg-Ala-Asp-DPhe-Val) (peptide)
peptide: cyclo(RAD[dF]V)
SMILES: CC(C)[C@@H]1NC(=O)[C@@H](Cc2ccccc2)NC(=O)[C@H](CC(=O)O)NC(=O)[C@H](C)NC(=O)[C@H](CCCNC(=N)N)NC1=O
notes: also called cyclo(RADfV)
B2 was tested, and the IC50 [3] was 4000 nM.

B3: Cyclo-(Arg-Gly-Asp-Phe-Nhdg) (peptide)
peptide: cyclo(RGDF[Nhdg])
SMILES: CCCCCCCCCCCCCCCCN1CC(=O)N[C@@H](CCCNC(=N)N)C(=O)NCC(=O)N[C@@H](CC(=O)O)C(=O)N[C@@H](Cc2ccccc2)C1=O
notes: Phe at 4 is printed without D; residue 5 is glycine carrying an N-hexadecyl group
B3 was tested, and the IC50 [2] was 8 nM.

B4: Gly-Arg-Gly-Asp-Ser-Pro-Lys-OH (peptide)
peptide: GRGDSPK-OH
notes: Linear peptide with free C-terminus; also called GRGDSPK peptide
In the case of B4, the IC50 [4] is reported as 120 nM.

B5: Cyclo-(Arg-Gly-Asp-DPhe-Acha) (peptide)
peptide: cyclo(RGD[dF][Ac6c])
SMILES: N=C(N)NCCC[C@@H]1NC(=O)C2(CCCCC2)NC(=O)[C@@H](Cc2ccccc2)NC(=O)[C@H](CC(=O)O)NC(=O)CNC1=O
notes: X = non-natural residue Acha; also called CPPC 1; Cyclopeptide
In the case of B5, the IC50 [2] is reported as 2 nM and the IC50 [4] is reported as 2.1 nM.

With cyclo(RGD[dF][Aib′]) (X = non-natural residue Aib) [Cyclo-(Arg-Gly-Asp-DPhe-Aib)] the IC50 [2] was 20 nM.

Work on cyclo(RGD[dF][Ac5c]) (X = non-natural residue Acpa) [Cyclo-(Arg-Gly-Asp-DPhe-Acpa)] yielded an IC50 [2] of 9 nM.

Work on cyclo(RGD[dF]X) (not fully specified (residue 5); printed as Cyclo-(Arg-Gly-Asp-DPhe-hPro), X = non-natural residue hPro) [Cyclo-(Arg-Gly-Asp-DPhe-hPro)] yielded an IC50 [2] of 170 nM.
